Measurements taken from the supplement of paper PMC9170038.

System: MS2 coat protein
Assay: apparent KD of MS2 coat protein; designed switch direction (-1 OFF switch, 1 ON switch): -1; higher = weaker reporter binding
Method in brief: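 Designed RNA switches sharing common flanks were transcribed on Illumina chips by stalled E. coli RNA polymerase. They were titrated with SNAP-549-labelled MS2 coat protein, from 0.7 or 1.5 nM doubling to 3 µM, in Tris-HCl pH 7.5 buffer with KCl, MgCl2, BSA, DTT, tRNA and Tween-20. Titrations ran without input, with 200 uM small-molecule ligand, or with an oligonucleotide input. The apparent KD of each design is the median over its clusters, after curve-fitting of normalised cluster fluorescence.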

[1] = Eterna round: R95, input ligand: FMN 200 uM
[2] = Eterna round: R95, input ligand: microRNA oligo, concentration not stated
[3] = Eterna round: R95, input ligand: none
[4] = input ligand: microRNA oligo, concentration not stated

| Sequence | apparent KD of MS2 coat protein [1] [nM] | apparent KD of MS2 coat protein [2] [nM] | apparent KD of MS2 coat protein [3] [nM] | apparent KD of MS2 coat protein (input ligand: FMN 200 uM) [nM] | apparent KD of MS2 coat protein [4] [nM] | apparent KD of MS2 coat protein (input ligand: none) [nM] |
| --- | --- | --- | --- | --- | --- | --- |
| AAAAAACAAGGAUAUACUAAAAAAAAAUGUGUUAAUUUUUCACAUGAGGAUCACCCAUGUAGAAGGUGUUAAAA [JR_Exclusion2_Sub006] (puzzle: Exclusion 2) | 54.7 | 79 | 93.6 | – | – | – |
| AAAAACAGAGGAUAUGCACGCCGACCCGGGCGGGAAGUCGGACAUGAGGAUCACCCAUGUAGAAGGCUGAAAAA [Exclss2-VI] (puzzle: Exclusion 2) | 13.3 | 10.5 | 11.5 | – | – | – |
| AAAAAGCGAGGAUAUGCGGGCGGGUGCGGCCAGCCGAUGUGACAUGAGGAUCACCCAUGUAGAAGGCGCAAAAA [Excls2-VII] (puzzle: Exclusion 2) | – | 12.3 | – | – | – | – |
| AAAAAUUACAUGAGGAUCACCCAUGUAGAGUGGGAAGAGAGAUAGGAUAUGAUGUGAGAAUCAUAUCAGAAGGAUCGAGACUCA [AK ExNG3-2.1] (Eterna round: R96, puzzle: Exclusion NG 3) | – | – | – | 129 | 126 | 119 |
| AAAACAAACGAAGGAUAUGCGCGAAAAUGACUAGCAGAAGGUCGACACGGGCGGAUCCGACAUGAGGAUCACCCAUGUAAAACU [Tied] (Eterna round: R96, puzzle: Exclusion NG 1) | – | – | – | 1200 | 389 | 490 |
| AAAACACAUGAGGAUCACCCAUGUGAGGAUAUGCUAUGGAAAAUAAAAAUAAAACAUAGCAGAAGGCACAAAGG [Denovo 18] (Eterna round: R96, puzzle: Exclusion 1) | – | – | – | – | 54 | – |
| AAAACCUCUGUCAGGAUAUCCAUGCGUCCAAAAGCGGAGAAGGGACAUGAGGAUCACCCAUGUUAGCAAAAUCA [Ceenxequ] (puzzle: Brourd's mod of Exclusion 4) | 119 | 34.9 | 38.5 | – | – | – |
| AAAACGUGAGGAUAUCCAAUAUAUGACAUGAGGAUCACCCAUGUUUCCACUCGUACCUCCGGAGAAGGCACAUUUU [Ex5 #79] (Eterna round: R97, puzzle: Exclusion 5) | – | – | – | 62.7 | – | 67 |
| AAAACUCACGUAGGAUAUCAUUCCUUAAGGUAGUGAGAAGGACGUGACUACAUGUCCUAAAACAUGAGGAUCACCCAUGUAGGC [Riis] (Eterna round: R96, puzzle: Exclusion NG 1) | – | – | – | – | 24.2 | – |
| AAAAGGCUAGGAUAUACAUGAGGAUCACCCAUGUGAGGGCACGGCCGGCGCGGGCCCGGUAGAAGGAGUCAAAA [Exc;s3-IX] (puzzle: Exclusion 3) | – | 13.4 | – | – | – | – |
| AAAAGGUGAGGAUAUACAAUGAUCCUCAUAAUAACCCGAAGACAUGAGGAUCACCCAUGUAGAAGGCACAAAUA [Istive] (puzzle: Exclusion 2) | 33.4 | 16.5 | 19.8 | – | – | – |
| AAAAGUUUGGAGGAUAUCCAUCCAAACGGAUAAGGAGAAGGCCGGACAUGAGGAUCACCCAUGUGAUUAGGUUA [Isradiri] (puzzle: Exclusion 6) | – | 13.4 | – | – | – | – |
| AAAAUAAAAGCAGGAUAUCGACCUCCCAAGUGGCGAGAAGGGCUAGACGGGCGGUCUAACAUGAGGAUCACCCAUGUCAACAAA [Soorante] (Eterna round: R96, puzzle: Exclusion NG 1) | – | – | – | 93.4 | 23.5 | 34.7 |
| AAAAUACAUGAGGAUCACCCAUGUGAGGAUAUGAGAGUCAACUCGAGAGAGUUGAUUCUCAGAAGGCACAUAAA [JR_Ex1_Sub066] (Eterna round: R97, puzzle: Exclusion 1) | – | – | – | 228 | – | 53.7 |
| AAACAACGGACAGGAUAUCCGAAAAUAAAGCUAGGAGAAGGGUCGAAAACAUGAGGAUCACCCAUGUGCGUGGCGGGUUCUUAG [Zaerqu] (Eterna round: R96, puzzle: Exclusion NG 1) | – | – | – | 25.6 | 13.4 | 21.2 |
| AAACAAGCUCGGGUGAGGGAGACCACAGAAGGACCCAAAACAUGAGGAUCACCCAUGUCAAGAGUAGAGCUUGGCAU [high scoring solution 31] (Eterna round: R96, puzzle: Sensor v2, turn-off variant 2) | – | – | – | 71 | 57.4 | 75.4 |
